The RNAGym collection of RNA variant scans (doi:10.1073/pnas.2313332121)
This sample holds only a part of the variants without activity.

B1: TPR 5TU (parent)
chain: GGAUCUUCUCGAUCUAACAAAAAAGACAAAUCUGCCACAAAGCUUGAGAGCAUCUUCGGAUGCAGAGGCGGCAGCCUUCGGUGGCGCGAUAGCGCCAACGUUCUCAACUAUGACACGCAAAACGCGUGCUCCGUUGAAUGGAGUUUAUCAUG

Variants of: B1
Assay: polymerase ribozyme fitness, log enrichment relative to wild type (log ratio); higher = more active; in vitro selection for triplet polymerase activity
How it was run: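 For each subunit of a heterodimeric triplet polymerase ribozyme, a mutant library was built by PCR and transcribed, then taken through a single in vitro selection round in triplicate. Selection involved annealing to a biotinylated primer, the partner subunit and triplets, incubation frozen at −7 °C, gel excision of extended constructs, capture on streptavidin beads and RT-PCR. Genotypes were retained after Illumina sequencing of inputs and outputs only with ≥10 input reads and ≥1 read in each output. Fitness is defined as the logarithm of a genotype's enrichment relative to wild-type enrichment, using inverse-variance-weighted averages across replicates, with the logarithm taken to base 2.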

Variant	polymerase ribozyme fitness (log ratio)
GGAUCUUCUCGAUCUAACAAAAAAGACAAAUCUGCCACAAAGCUUGAGAGCUUCUACGGAUGCAGUGGCGGCAGCCUUCGGUGGCGCGAUAGAGCCAACGUUCUCAACUAUGACACGCAAAAGGCGUGCUCCGUUGAAUGGAAUUAAUCAUG [A52U U56A A66U C93A C123G G143A U146A]	≤ -4.2
GGAUCUUCUCGAUCUAACAAAAAAGACAAAUCUGCCACAAAGCUUGAGAGCUUCUUCGAAUGCAGAGGCGGCAGCCUUCGGUGGCGCGAUAGCGCCAGCGUUCUCAACUAUGACACGCAAAACGCGUGCUCCGUUGAAUGGAGUUUAUCAUG [A52U G59A A98G]	-1.21
GGAUCUUCUCGAUCUAACAAAAAAGACAAAUCUGCCACAAAGCUUGAGAGCUACUUAGGAUGCAGAGGCGGCAGCCUUCGGUGGCACGAUAGCGCCAACGUUCUCAACUAUGACACGCAAAACGCGUGCUCCGUUGAAUGGAGUUUAUCAUG [A52U U53A C57A G86A]	-1.31
GGAUCUUCUCGAUCUAACAAAAAAGACAAAUCUGCCACAAAGCUUGAGAGCUUCUUCGGAUGCAGAGGCGGCAGCCUCCGGUGGCGCGAUAGCGCCAACGUCCUCAACUAUGACACGCAAAACGCGUGCUCCGUUGAAUGGAGUUUAUCAUG [A52U U78C U102C]	-2.88
GGAUCUUCUCGAUCUAACAAAAAAGACAAAUCUGCCACAAAGCUUGAGAGCAACUUCGGAUGCAGCGGCGGCAGCCUUCGGUGGCGCGAUAGCGCCAACGUUCUCAACUAUGACACGCAAAACGCGUGCUCCGUUGAAUGGAGUUUAUCAUG [U53A A66C]	-4.19
GGAUCUUCUCGAUCUAACAAAAAAGACAAAUCUGCCACAAAGCUUGAGAGCUUCUUCGGAUGCAGAGGCGGCAGCCUUCGGUGGCGCGAUAGCGCCAACGUUCUCAACUAUGACACGCAAAACGUGUGCUCCGUUGAAUGGAGUUUAUCAUG [A52U C125U]	-1.42
GGAUCUUCUCGAUCUAACAAAAAAGACAAAUCUGCCACAAAGCUUGAGAGCUUCUUCGGAGGCAGAGGCGGCAGCCUUCGGUGGCGCGAUGGCGCAAACGUUCUCAACUAUGACACCCAAAACGCGUGCUCCGUUGAAUGGAGUUUAUCAUG [A52U U61G A91G C96A G117C]	-3.76
GGAUCUUCUCGAUCUAACAAAAAAGACAAAUCUGCCACAAAGCUUGAGAGCUUCUACGGAUGCAGAGGCGGCAGCCUUGGGUGGCGCGAUAGCGCCAACGUUCUAAACUAUGACACGCAAAACGCGUGCUCCGUUGAAUGGAGUUUAUCAUG [A52U U56A C79G C105A]	≤ -4.2
GGAUCUUCUCGAUCUAACAAAAAAGACAAAUCUGCCACAAAGCUUGAGAGCUUCUUCGGAUGCAGAGGCGGCAGCCUUCGGUGGCGCGAUAGCGCCAACGUUCACAACUAUGACACGCAAAACGCGUGCUCCCUUGAAUGCAGUUGAUCAUG [A52U U104A G133C G141C U146G]	≤ -4.2
GGAUCUUCUCGAUCUAACAAAAAAGACAAAUCUGCCACAAAGCUUGAGAGCUUCUUCGGAUGCAGAUGCGGCAGCCUUCGGUGGAGCGAUAGCGCCAACGUUCUCAACUAUGACACGCAAAACGGGUGCUCCGUUGAAUGGAGUUUAUCAUG [A52U G67U C85A C125G]	≤ -4.2
GGAUCUUCUCGAUCUAACAAAAAAGACAAAUCUGCCACAAAGCUUGAGAGCUUCUUCGGAUGCAGAGGCGGCAGCCUUCGGUAGCGCGAUAGCGUCAACGUUCUCAACUAUGACACGCAAAACGCGUGCUCCGUUGAAUGGAGUUUAUCAUG [A52U G83A C95U]	-3.78
GGAUCUUCUCGAUCUAACAAAAAAGACAAAUCUGCCACAAAGCUUGAGAGCUUCUUCGGAUGCAGAGGCGGCAGCCUUCGGUGGCGCGAUAGCGCCAACGUUCUCAACUAUGACACGCAAAACGCGUGCUCCGUUGAAGGGAGCUUAUCAUG [A52U U139G U144C]	-1.12
GGAUCUUCUCGAUCUAACAAAAAAGACAAAUCUGCCACAAAGCUUGAGAGCAACUUCGGUUGUAGAGGCGGCAGUCGUCGGUGGCGCGAUAGGGCCAACGUUCUCAACUAUGACACGCAAAGCGCGUGCUCCGUUGAAUGGAGUUUAUGAAG [U53A A60U C63U C75U U77G C93G A122G C149G U151A]	≤ -4.2
GGAUCUUCUCGAUCUAACAAAAAAGACAAAUCUGCCACAAAGCUUGAGAGCUUCUUCGGAUGCAGAGGCGGCAGCCUUCGGUGGCGCGAUAGCGCCAACGUUCUCAACUAUGACACGCAAAACGCGUGCUCCGUUGAAUGGAGGUUCUCAUG [A52U U144G A147C]	-0.409
GGAUCUUCUCGAUCUAACAAAAAAGACAAAUCUGCCACAAAGCUUGAGAGCUUCUUCGGAUGCAGAGGCGGCAGCCUUCAGUGGCGCGAUAGCGCCAACGUUCUCAACUAUGACACGCAAAACGCGUGCUCCGUUGAAUGGAGUUUAUCAUG [A52U G80A]	-3.35
GGAUCUUCUCGAUCUAACAAAAAAGACAAAUCUGCCACAAAGCUUGAGAGCUGCUACGGAUGCACAGGCGGCAGUCUUCGGUGGUGCGAUAGCGCCAACGUUCGCAACUAUGACACGCAAAACGCGCGCUCCGUUGAAAGGAGUUUAUCAUG [A52U U53G U56A G65C C75U C85U U104G U127C U139A]	≤ -4.2
GGAUCUUCUCGAUCUAACAAAAAAGACAAAUCUGCCACAAAGCUUGAGAGCUUCUUCGGAUGCAGAGGCGGCAGCCUUCGAUGGCGAGAUAGCGCCUACGUUCGCAACUAUGACACGCAAAACGCCUGCUCCGGUCAAUGGAGUUUAUCAUG [A52U G81A C87A A97U U104G G126C U134G G136C]	≤ -4.2
GGAUCUUCUCGAUCUAACAAAAAAGACAAAUCUGCCACAAAGCUUGAGAGCUGCUUCGGAAGCAGAGGCGGCAGCCUUCGGUGGCGCGAUGGCGCCAACGUUCUCAACUAUGACACGCAAAACGCGUGCGCCGUUGAAUGGAGGUUAUCAUG [A52U U53G U61A A91G U130G U144G]	≤ -4.2
GGAUCUUCUCGAUCUAACAAAAAAGACAAAUCUGCCACAAAGCUUGAGAGCUUCUUCGGAUGCAGAGGCGGCAGCCUUCGGUAGCGCGAUAGCGCCAACGUUCUCAACUAUGACACGUAACACGCGUGCUCCGUUGAAUGGAGUUUAUCAUG [A52U G83A C118U A121C]	-2.33

Variant	polymerase ribozyme fitness (log ratio)
GGAUCUUCUCGAUCUAACAAAAAAGACAAAUCUGCCACAAAGCUUGAGAGCUUCAUCGGAUGCAGAGGCGGCAGCCUUCGGUGGCGCGAUAGCGCCAACGUUCUCAACUAUGACACGCAAAACGCGUGCUCCGUUGAAUGGAGUUUAUCAUG [A52U U55A]	-1.7
GGAUCUUCUCGAUCUAACAAAAAAGACAAAUCUGCCACAAAGCUUGAGAGCUUCUUCGAAUGCAGAGGCGGCAGCCUUCGGUGGCGCGAUAGCGCCAGCGUUCUCAACUAUGACACGCAAAACGCGUGCUUCGUUGAAUGGAGUUUAUCAUG [A52U G59A A98G C131U]	-1.78
GGAUCUUCUCGAUCUAACAAAAAAGACAAAUCUGCCACAAAGCUUGAGAGCUUCUUCGGAUGCAGAGGCGGCAGCCUUCGGUAGCGCGACAGCGCCAACGUUCUCUACUAUGACACGCAAAACGCGAGCUCCGUUGAAUGGAGUUUAUCAUG [A52U G83A U90C A106U U127A]	≤ -4.2
GGAUCUUCUCGAUCUAACAAAAAAGACAAAUCUGCCACAAAGCUUGAGAGCUUCUUCGGAUGCAGAGGCGGCAGCCUUCGGUGGCGCGAUAGCGCCAACGUUCUCAACUAUGACACGCAAAACGCGUGCUCCGUUAAAUGGAGUUUAUCAUG [A52U G136A]	-0.592
GGAUCUUCUCGAUCUAACAAAAAAGACAAAUCUGCCACAAAGCUUGAGAGCUUCUUCGGAUGCAGAGGCGGCAGCCUUCGGGGGCGCGAUAGCGCCAACGUUCUCAACUAUGACACGCAAAACGCGUGCUCCGUGGAAUGGAGUUUAUCUUG [A52U U82G U135G A150U]	-2.62
GGAUCUUCUCGAUCUAACAAAAAAGACAAAUCUGCCACAAAGCUUGAGAGCUUCUUCGGAUGCAGAGGCGGCAGCCUUCGGUGUCACGAUUGCGCCAACGUUCUCAACUAUGACACGCAAUACGCGUGCUCCGUUGAAUGGAGUUUAUCAUG [A52U G84U G86A A91U A121U]	≤ -4.2
GGAUCUUCUCGAUCUAACAAAAAAGACAAAUCUGCCACAAAGCUUGAGAGCUUCUUCGGAUGCAGAGGCGGCAGCCUUCGGUGGCGCGAUAGCGCCAACGUUCUCAACUAUGACACGUAAAACGCGUGCUCCGUUGAAUGGAGUUGAUCAUG [A52U C118U U146G]	-3.62
GGAUCUUCUCGAUCUAACAAAAAAGACAAAUCUGCCACAAAGCUUGAGAGCUUCUUCGGAUGCAGAGGCGGCAGCCUUCGGUGGCUCGAUAGCGCCAACGUUCCCAACUAUGACACGCAAAACGCGUGCUCCGUUGAAUGGAGUUUAUCAUG [A52U G86U U104C]	-3.56
GGAUCUUCUCGAUCUAACAAAAAAGACAAAUCUGCCACAAAGCUUGAGAGCUUCUUCGGAUGCAGAGGCGGCAGCCUUCGGUGGCGCGAUAUCGCCAACGUUCUAAACUAUGACACGCAAAACGCGUGCUCCGUUGAAUGGAGUUUAUCAUG [A52U G92U C105A]	-3.93
GGAUCUUCUCGAUCUAACAAAAAAGACAAAUCUGCCACAAAGCUUGAGAGCUUCUUCCGAUGCAGAGGCGGCAGCCUACGGUGGCGCGAUAGCGCCAACGUUCUCAACUAUGACACGCAAAGCGCGUGCUCCGUUGAAUGGAGUUUAUCAUG [A52U G58C U78A A122G]	≤ -4.2
GGAUCUUCUCGAUCUAACAAAAAAGACAAAUCUGCCACAAAGCUUGAGAGCAACUUCGGGUGCAGAGGCGGCAGCCUUCGGUGGCGCGAUAGCGCUAACGUUCUCUACUAUGACACGCAAAACGCGUGCUCCGUUGAAGGGAGUUUAUCAUG [U53A A60G C96U A106U U139G]	-2.41
GGAUCUUCUCGAUCUAACAAAAAAGACAAAUCUGCCACAAAGCUUGAGAGCUUCUUCGGAUGCAGAGGCGGCAGCCUUCGGAGGCGCGAUAGAGCCAACGUUCUCAACUAUGACACGCAAAACGCGUGCUGCGUUGAAUGGAGUUUAUCAUG [A52U U82A C93A C131G]	≤ -4.2
GGAUCUUCUCGAUCUAACAAAAAAGACAAAUCUGCCACAAAGCUUGAGAGCAACUUCGGUAGCAGAGGGGGCAGCCUUCGGUGGCGCGAUAGCGCUAACGUUCUCAACUAUGACACGCAAAACGCGUGCUCCGUUGAAUGGAGUUUAUCAUG [U53A A60U U61A C69G C96U]	-3.74
GGAUCUUCUCGAUCUAACAAAAAAGACAAAUCUGCCACAAAGCUUGAGAGCUUCUUCGCAUGCAGAGGCGGCAGCCUUCGGUGGCGCGAUUGCGCCAACGUUCUCAACUAUGACACGCAAAACGCGUGCUCCGUUGAAUGGAGUUUAUCAUG [A52U G59C A91U]	≤ -4.2
GGAUCUUCUCGAUCUAACAAAAAAGACAAAUCUGCCACAAAGCUUGAGAGCUUCUUCGGAUGCAGAGGCGGCAGCCUUCGGUGACGCGAUAGCGCCAACGUUCUCAACUAUGACACGCAAAACGCGUGCUCCGUUGAAUGGACUUUAUCAUG [A52U G84A G143C]	-3.92
GGAUCUUCUCGAUCUAACAAAAAAGACAAAUCUGCCACAAAGCUUGAGAGCUACUUCGGAUGCAGAGGCGGCAGCCUUCGGUGGCGCGAUAGCGCCAACGUUCUCAACUAUGACACGCAAAACGCGUGCUCCGUUGAAUGGAGUUUAUCAUG [A52U U53A]	-1.23
GGAUCUUCUCGAUCUAACAAAAAAGACAAAUCUGCCACAAAGCUUGAGAGCUUCUUCGGAUGCAGAGGCGGCAGCCUUCGGUAGCGCGAUAGCGCCAACGUUCUCAACUAUGACACGCAAAACGCGUGCUCCGUUGAAUGGAGUUUAUCAUG [A52U G83A]	-2.83
GGAUCUUCUCGAUCUAACAAAAAAGACAAAUCUGCCACAAAGCUUGAGAGCUUCUUCGGAUGCAGAGGCGGCAACCUUCGGUGGCGAGAUAGCGCCAACGUUCUCAACUAUGACACGCUAAACGCGUGCUCCGUUGAAUGGAGUUUAGCAUG [A52U G74A C87A A119U U148G]	≤ -4.2
GGAUCUUCUCGAUCUAACAAAAAAGACAAAUCUGCCACAAAGCUUGAGAGCUUCUUCGGAUGCAGAGGCGGCAGCCUUCGGUGGCUCGAUAGCGCCAACGUUCUUAACUAUGACACGCAAAACGCGUGCUCCGUUGAAUGGAGUUUAUCAUG [A52U G86U C105U]	-1.83
